How the values were obtained:
[1] = biological target: T1, D2H receptor domain (human D2H transporter, amino acid residues 387-685), His-tag fusion protein (human, UniProt Q07837 387-685); assay: phage ELISA, OD on D2H over OD on BSA
T1 construct: purified under denaturing conditions; also called recombinant D2H; not shown: poly-histidine tag (pET vector) at the NH2-terminal end
T1 sequence: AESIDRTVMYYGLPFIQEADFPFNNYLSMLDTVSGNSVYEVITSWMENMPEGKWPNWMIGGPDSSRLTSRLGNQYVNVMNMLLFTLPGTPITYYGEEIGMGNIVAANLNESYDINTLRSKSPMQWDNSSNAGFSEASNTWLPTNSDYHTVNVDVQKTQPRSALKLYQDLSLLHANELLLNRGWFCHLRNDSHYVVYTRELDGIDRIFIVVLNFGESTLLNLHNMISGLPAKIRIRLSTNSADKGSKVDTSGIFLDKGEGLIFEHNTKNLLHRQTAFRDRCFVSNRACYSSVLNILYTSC
Procedure: (§1) 6.6. Receptor ELISA Procedure 96 well plates were coated overnight with GIT receptor, BSA and, optionally, IDE (insulin degrading enzyme, an irrelevant His-fusion protein)or hTF. The plates were blocked for one hour with 0.5% BSA-PBS. After clarification, the amplified phage were diluted 1:100 in […] plus 0.05% Tween 20 in PBS and added to the plates. Following incubation of the plates on a rotator for 1 to 2 hours, the plates were washed 5 times with 1% BSA plus 0.05% Tween 20 in PBS. […] After the plates were washed 5 times, as described above, TMB substrate was added to the wells. The plates were read at 650 nm absorbance.
(§2) Binding to fixed Caco-2 cells, D2H and BSA was examined.

[2] = biological target: T1, D2H receptor domain (human D2H …); assay: phage ELISA, plate coated with D2H domain
Procedure: as §1, §2

B1: DCX11 (peptide)
peptide: SQGSKQCMQYRTGRLTVGSEYGCGMNPARHATPAYPARLLPRYRAETVESCLAKPHTENSFTNVWKDDKTLDRYANYEGCLWNATGVVVCTGDETQCYGTWVPIGLAIPENEGGGSEGGGSEGGGSEGGGTKPPEYGDTPIPGYTYINPLDGTYPPGTEQNPANPNPSLEESQPLNTFMFQNNRFRNRQGALTVYTGTVTQGTDPVKTYYQYTPVSSKAMYDAYWNGKFRDCAFHSGFNEDPFVCEYQGQSSDLPQPPVNAGGGSGGGSGGGSEGGGSEGGGSEGGGSEGGGSGGGSGSGDFDYEKMANANKGAMTENADENALQSDAKGKLDSVATDYGAAIDGFIGDVSGLANGNGATGDFAGSNSQMAQVGDGDNSPLMNNFRQYLPSLPQSVECRPFVFSAGKPYEFSIDCDKINLFRGVFAFLLYVATFMYVFSTFANILRNKES
notes: Assayed as M13 phage clone displaying the insert
D2H/BSA [1]: 3 ratio | OD [2]: 0.222 OD

Reference: US6703362 (CYTOGEN, dated 2004)
